# T1: His×6-HDAC6-FLAG (human, UniProt Q9UBN7 1-1215)
# T1 sequence (looked up): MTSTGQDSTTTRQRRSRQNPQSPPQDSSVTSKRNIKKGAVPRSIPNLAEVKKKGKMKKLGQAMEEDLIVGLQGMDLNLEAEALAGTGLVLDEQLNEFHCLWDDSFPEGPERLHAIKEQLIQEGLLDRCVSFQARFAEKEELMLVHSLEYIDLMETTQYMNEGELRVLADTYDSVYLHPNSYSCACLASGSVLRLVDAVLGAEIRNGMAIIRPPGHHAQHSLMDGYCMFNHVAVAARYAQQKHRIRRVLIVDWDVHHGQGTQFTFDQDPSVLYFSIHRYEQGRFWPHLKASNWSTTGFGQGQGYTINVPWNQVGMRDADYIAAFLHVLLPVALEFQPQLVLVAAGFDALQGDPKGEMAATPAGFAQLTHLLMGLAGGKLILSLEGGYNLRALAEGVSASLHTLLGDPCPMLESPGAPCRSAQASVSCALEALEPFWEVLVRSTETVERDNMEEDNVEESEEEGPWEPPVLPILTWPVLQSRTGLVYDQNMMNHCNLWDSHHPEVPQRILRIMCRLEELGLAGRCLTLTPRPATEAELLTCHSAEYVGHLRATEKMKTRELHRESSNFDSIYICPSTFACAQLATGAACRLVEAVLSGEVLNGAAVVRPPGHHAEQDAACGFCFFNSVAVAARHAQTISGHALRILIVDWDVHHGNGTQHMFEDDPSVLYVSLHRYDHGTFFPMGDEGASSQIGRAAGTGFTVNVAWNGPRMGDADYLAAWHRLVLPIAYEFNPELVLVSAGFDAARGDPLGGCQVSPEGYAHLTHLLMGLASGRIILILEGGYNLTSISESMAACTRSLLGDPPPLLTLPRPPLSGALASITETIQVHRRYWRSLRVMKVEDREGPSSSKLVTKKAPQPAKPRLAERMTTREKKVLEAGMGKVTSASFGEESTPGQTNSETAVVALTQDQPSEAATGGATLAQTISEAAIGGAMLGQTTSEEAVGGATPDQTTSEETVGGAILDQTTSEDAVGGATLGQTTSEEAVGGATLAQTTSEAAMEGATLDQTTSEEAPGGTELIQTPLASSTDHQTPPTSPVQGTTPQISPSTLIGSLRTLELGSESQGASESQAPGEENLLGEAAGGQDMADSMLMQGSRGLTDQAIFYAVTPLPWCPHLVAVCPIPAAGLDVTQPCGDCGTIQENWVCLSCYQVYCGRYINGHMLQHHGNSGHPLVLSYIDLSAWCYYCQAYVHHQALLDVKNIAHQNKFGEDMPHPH
# T2: His×6-DD1-FLAG (human, UniProt Q9UBN7 106-439)
# T2 sequence (looked up): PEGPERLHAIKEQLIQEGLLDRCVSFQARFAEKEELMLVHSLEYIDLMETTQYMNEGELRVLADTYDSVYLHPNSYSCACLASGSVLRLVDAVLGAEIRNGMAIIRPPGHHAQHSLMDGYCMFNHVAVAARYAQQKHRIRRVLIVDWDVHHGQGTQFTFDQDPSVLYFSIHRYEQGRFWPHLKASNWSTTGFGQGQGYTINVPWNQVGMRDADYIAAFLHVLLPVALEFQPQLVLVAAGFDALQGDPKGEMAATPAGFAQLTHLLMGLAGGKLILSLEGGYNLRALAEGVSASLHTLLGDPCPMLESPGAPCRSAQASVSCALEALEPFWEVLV
# T3: His×6-DD2-FLAG (human, UniProt Q9UBN7 440-840)
# T3 sequence (looked up): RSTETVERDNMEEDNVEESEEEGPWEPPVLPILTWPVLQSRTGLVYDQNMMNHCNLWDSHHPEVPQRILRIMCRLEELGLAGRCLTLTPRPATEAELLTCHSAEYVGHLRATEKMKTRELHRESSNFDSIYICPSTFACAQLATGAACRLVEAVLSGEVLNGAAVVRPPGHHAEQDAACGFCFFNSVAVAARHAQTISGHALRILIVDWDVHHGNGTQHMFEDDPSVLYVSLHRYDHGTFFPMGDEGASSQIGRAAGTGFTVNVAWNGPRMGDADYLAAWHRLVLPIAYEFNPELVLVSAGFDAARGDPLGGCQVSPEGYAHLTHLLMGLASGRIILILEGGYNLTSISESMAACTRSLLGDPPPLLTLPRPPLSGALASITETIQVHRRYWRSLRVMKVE
# B1: GST-tagged parkin Linker domain (L) (domain or fragment, human, UniProt O60260 77-237, looked up)
# chain: GQEMNATGGDDPRNAAGGCEREPQSLTRVDLSSSVLPGDSVGLAVILHTDSRKDSPPAGSPAGRSIYNSFYVYCKGPCQRVQPGKLRVQCSTCRQATLTLTQGPSCWDDVLIPNRMSGECQSPHCPGTSAEFFFKCGAHPTSDKETSVALHLIATNSRNIT
# B2: GST-tagged parkin RING1 domain (R1) (domain or fragment, human, UniProt O60260 217-310, looked up)
# chain: TSDKETSVALHLIATNSRNITCITCTDVRSPVLVFQCNSRHVICLDCFHLYCVTRLNDRQFVHDPQLGYSLPCVAGCPNSLIKELHHFRILGEE
# B3: GST-tagged parkin RING2 domain (R2) (domain or fragment, human, UniProt O60260 395-465, looked up)
# chain: ERAAEQARWEAASKETIKKTTKPCPRCHVPVEKNGGCMHMKCPQPQCRLEWCWNCGCEWNRVCMGDHWFDV
# Key:
# Test in all cases: pull-down
# His×6-HDAC6-FLAG = biological target: T1, His×6-HDAC6-FLAG
# His×6-DD1-FLAG = biological target: T2, His×6-DD1-FLAG
# His×6-DD2-FLAG = biological target: T3, His×6-DD2-FLAG
binder,measurement,setting,value
B1,binding result,His×6-HDAC6-FLAG,binds
same,binding result,His×6-DD1-FLAG,binds
B2,binding result,His×6-HDAC6-FLAG,binds
same,binding result,His×6-DD1-FLAG,binds
B3,binding result,His×6-HDAC6-FLAG,binds
same,binding result,His×6-DD2-FLAG,binds

# — article PMC2680492 (The Journal of neuroscience : the official journal of the …, 2008)
